Target: the molecule itself
Experiment: non-reducing SDS-PAGE

B1: GAUT1Δ167 (Arabidopsis GALACTURONOSYLTRANSFERASE 1, truncated at the in vivo cleavage site between residues 167 and 168) (enzyme, Arabidopsis thaliana, UniProt Q9LE59 168-673, looked up)
chain: RANELVQHNDDTILKLENAAIERSKSVDSAVLGKYSIWRRENENDNSDSNIRLMRDQVIMARVYSGIAKLKNKNDLLQELQARLKDSQRVLGEATSDADLPRSAHEKLRAMGQVLAKAKMQLYDCKLVTGKLRAMLQTADEQVRSLKKQSTFLAQLAAKTIPNPIHCLSMRLTIDYYLLSPEKRKFPRSENLENPNLYHYALFSDNVLAASVVVNSTIMNAKDPSKHVFHLVTDKLNFGAMNMWFLLNPPGKATIHVENVDEFKWLNSSYCPVLRQLESAAMREYYFKADHPTSGSSNLKYRNPKYLSMLNHLRFYLPEVYPKLNKILFLDDDIIVQKDLTPLWEVNLNGKVNGAVETCGESFHRFDKYLNFSNPHIARNFNPNACGWAYGMNMFDLKEWKKRDITGIYHKWQNMNENRTLWKLGTLPPGLITFYGLTHPLNKAWHVLGLGYNPSIDKKDIENAAVVHYNGNMKPWLELAMSKYRPYWTKYIKFDHPYLRRCNLHE
B1: binds.
